Substrate in the data set: CCCCSC1CCC(=O)O1
Put plainly: purified protein. The settings on record: 50 mM Tris-HCl pH 8, 1 mM CaCl2, RT, no OX-LA, no vutiglabridin. Type of data set: biochemical, Homo sapiens.

This note sets out measurements from PMC10135725, “Vutiglabridin Modulates Paraoxonase 1 and Ameliorates Diet-Induced Obesity in Hyperlipidemic Mice” (Biomolecules, 2023).

As a reminder, the Km is the concentration of substrate that gives half-maximal velocity. A word on the Vmax: it is the top rate of the reaction or transport when substrate is in excess.

B1: Recombinant PON1 (rePON1), carboxy-terminal hexahistidine tag (Homo sapiens) (protein)
chain: AKLIALTLLGMGLALFRNHQSSYQTRLNALREVQPVELPNCNLVKGIETGSEDLEILPNGLAFISSGLKYPGIKSFNPNSPGKILLMDLNEEDPTVLELGITGSKFDVSSFNPHGISTFTDEDNAMYLLVVNHPDAKSTVELFKFQEEEKSLLHLKTIRHKLLPNLNDIVAVGPEHFYGTNDHYFLDPYLQSWEMYLGLAWSYVVYYSPSEVRVVAEGFDFANGINISPDGKYVYIAELLAHKIHVYEKHANWTLTPLKSLDFNTLVDNISVDPETGDLWVGCHPNGMKIFFYDSENPPASEVLRIQNILTEEPKVTQVYAENGTVLQGSTVASVYKGKLLIGTVFHKALYCEL
notes: purified, C-terminal hexahistidine tag, expressed in CHO-K1 cells
On to B1, for which the Km is reported as 155.78 µM and the Vmax is 92.3 µM/min.
